Data: paper PMC11546553, “Chitin Translocation Is Functionally Coupled with Synthesis in Chitin Synthase” (International Journal of Molecular Sciences, 2024)

Target: the molecule itself
Test: cryo-EM structure; purified PsCHS at 3 mg/mL in digitonin, incubated with 0.5 mM UDP-GlcNAc and 1 mM Mn2+ for 15 min or 40 min at 25 °C before freezing; UDP/Mn2+-bound state resolved for both samples

B1: Phytophthora sojae chitin synthase 1 (enzyme)
chain: MSGAPPPSSGFAPRSYGQQPLSHAPRSSMMSVEYDGIPLPPPSIRSCGSQQYVTSYIPTGAAFPPSSVQDMISSMKSYASATDLVRTYSEIPSVEEALSTLDRAAAALNARRYRDALKLYLEGGYAMANVAERQANPKICNLLTSKGFETLNWCARLCDWIEGRIKEKHPRPGVHKVGIPVSNWDEDWVGPFMDEEEARRMWYTPVYCPHPIDFSNLGYRLRCVETGRRPRLMICITMYNEGPQQLKATLKKLANNLAYLKEQMPGDEKSLTGAFAGDDVWQNVLVCIVADGREQVHPKTLDYLEAIGLYDEDLLTINSAGIGAQCHLFEHTLQLSVNGKCLLPIQTVFALKENKASKLDSHHWYFNAFAEQIQPEYTAVMDVGTMLTKSALYHLLFAFERNHQIGGACGQLTVDNPFENLSNWVISAQHFEYKISNILDKSLESCFGFISVLPGAFSAYRYEAIRGAPLDAYFQTLNIELDVLGPFIGNMYLAEDRILSFEVVARKNCNWTMHYVKDAVARTDVPHDLVGLISQRKRWLNGAFFATLFSIWNWGRIYSESKHTFVRKMAFLVFYVYHLLYTAFGFFLPANLYLALFFIVFQGFQQNRLEFIDTSEYSQTVLDCAVYIYNFSYLFGLLMLIIIGLGNNPKHMKLTYYFVGAVFGLMMMLSSLVGAGIFFSTPATVHSIVVSILTVGVYFIASALHGEVHHIFMTFTHYTALIPSFVNIFTIYSFCNLQDLSWGTKGLHDDPLLAASLDETEKGDFKDVIAKRRALEELRREEKERVENRKKNFEAFRTNVLLTWAFSNLIFALFVVYFASSSTYMPVLYIFVASLNTCRLLGSIGHWVYIHTEGLRGRVIDKSECGNGTGRYPQNSYVQLEEHYAALAEDQRTYASGRTNASVRTVNDVSSAA
notes: Phytophthora sojae chitin synthase 1 (PsCHS1), the PsCHS gene in pcDNA3.1; the final models lack residues 1-22, stretches within 40-90, 738-761 and 860-925; also called PsCHS; PsCHS1; source: HEK293F cells, transfected (pcDNA3.1), purified (digitonin solubilisation, Ni-NTA, Superose 6 Increase SEC)
  stoichiometry N: 2
